Each block holds one substance with its values, some of them ahead of it.
Experiments:
HLA-DR (human) [1] = assay: indirect flow cytometry on Namalwa cells, FITC-GAH 2nd Ab (none 2.52); irrelevant antibody
CD74 (human) [2] = biological target: CD74 (human) (UniProt P04233); assay: indirect flow cytometry, FITC-GAH Fc 2nd Ab, RL cells (none 2.4)
CD74 (human) [3] = biological target: CD74 (human) (UniProt P04233); assay: indirect flow cytometry, FITC-GAH Fc 2nd Ab, Raji cells (none 6.9)
[4] = biological target: CD74 on dog lymphoma cells (dog); assay: flow cytometry on dog lymphoma aspirate, humanized MAbs (none 3.24)
[5] = biological target: CD74 on dog lymphoma cells (dog); assay: flow cytometry on dog lymphoma aspirate, humanized MAbs (none 4.48)
CD74 (human) [6] = biological target: CD74 (human) (UniProt P04233); assay: indirect flow cytometry, FITC-GAH Fc 2nd Ab, Daudi cells (none 3.2)
CD74 (human) [7] = biological target: CD74 (human) (UniProt P04233); assay: indirect flow cytometry, FITC-GAH Fc 2nd Ab, Ramos cells (none 3.1)
CD74 (human) [8] = biological target: CD74 (human) (UniProt P04233); assay: indirect flow cytometry on Namalwa cells, FITC-GAH 2nd Ab (none 2.52)
CD74 (human) [9] = biological target: CD74 (human) (UniProt P04233); assay: indirect flow cytometry, FITC-GAH Fc 2nd Ab, Namalwa cells (none 2.6)
CD74 (human) [10] = biological target: CD74 (human) (UniProt P04233); assay: indirect flow cytometry, FITC-GAH Fc 2nd Ab, SU-DHL-6 cells (none 4.6)
CD74 (human) [11] = biological target: CD74 (human) (UniProt P04233); assay: indirect flow cytometry, FITC-GAH Fc 2nd Ab, WSU-FSCCL cells (none 2.7)
CD74 (human) [12] = biological target: CD74 (human) (UniProt P04233); assay: indirect FACS, FITC-GAH Fc 2nd Ab, Raji cells (none 6.8); number split over two cells
CD74 (human) [13] = biological target: CD74 (human) (UniProt P04233); assay: indirect FACS, FITC-GAH Fc 2nd Ab, Daudi cells (none 3.1); number split over two cells
CD74 (human) [14] = biological target: CD74 (human) (UniProt P04233); assay: indirect FACS, FITC-GAH Fc 2nd Ab, Ramos cells (none 3.1); number split over two cells
CD74 (human) [15] = biological target: CD74 (human) (UniProt P04233); assay: indirect FACS, FITC-GAH Fc 2nd Ab, Namalwa cells (none 2.5); number split over two cells
CD74 (human) [16] = biological target: CD74 (human) (UniProt P04233); assay: indirect FACS, FITC-GAH Fc 2nd Ab, SU-DHL-6 cells (none 4.6); number split over two cells
CD74 (human) [17] = biological target: CD74 (human) (UniProt P04233); assay: indirect FACS, FITC-GAH Fc 2nd Ab, WSU-FSCCL cells (none 2.6); number split over two cells
[18] = biological target: CD22 on dog lymphoma cells (dog); assay: flow cytometry on dog lymphoma aspirate, murine MAbs (none 3.37)
[19] = biological target: CD22 on dog lymphoma cells (dog); assay: flow cytometry on dog lymphoma aspirate, murine MAbs (none 3.85)
CD22 (human) = CD22 (human) (UniProt P20273); assay: indirect flow cytometry on Namalwa cells, FITC-GAM 2nd Ab (none 2.91)
[20] = biological target: antigen on dog lymphoma cells recognised by L243 and hL243 (dog); assay: flow cytometry on dog lymphoma aspirate, murine MAbs (none 3.37); control antibody
[21] = biological target: antigen on dog lymphoma cells recognised by L243 and hL243 (dog); assay: flow cytometry on dog lymphoma aspirate, murine MAbs (none 3.85); control antibody
HLA-DR (human) [22] = assay: indirect flow cytometry on Namalwa cells, FITC-GAM 2nd Ab (none 2.91); control antibody
[23] = biological target: Fcγ receptors on effector cells; assay: cell-based or functional assay
[24] = biological target: CD22 on dog lymphoma cells (dog); assay: flow cytometry on dog lymphoma aspirate, humanized MAbs (none 3.24)
[25] = biological target: CD22 on dog lymphoma cells (dog); assay: flow cytometry on dog lymphoma aspirate, humanized MAbs (none 4.48)
HLA-DR (human) [26] = assay: indirect flow cytometry on Namalwa cells, FITC-GAM 2nd Ab (none 2.91); irrelevant antibody
[27] = biological target: CD74 on dog lymphoma cells (dog); assay: flow cytometry on dog lymphoma aspirate, murine MAbs (none 3.37)
[28] = biological target: CD74 on dog lymphoma cells (dog); assay: flow cytometry on dog lymphoma aspirate, murine MAbs (none 3.85)
CD74 (human) [29] = biological target: CD74 (human) (UniProt P04233); assay: indirect flow cytometry on Namalwa cells, FITC-GAM 2nd Ab (none 2.91)
[30] = biological target: T1, CD20 on dog lymphoma cells (dog) (UniProt Q3C2E2); assay: flow cytometry on dog lymphoma aspirate, murine MAbs (none 3.37)
T1 sequence (looked up): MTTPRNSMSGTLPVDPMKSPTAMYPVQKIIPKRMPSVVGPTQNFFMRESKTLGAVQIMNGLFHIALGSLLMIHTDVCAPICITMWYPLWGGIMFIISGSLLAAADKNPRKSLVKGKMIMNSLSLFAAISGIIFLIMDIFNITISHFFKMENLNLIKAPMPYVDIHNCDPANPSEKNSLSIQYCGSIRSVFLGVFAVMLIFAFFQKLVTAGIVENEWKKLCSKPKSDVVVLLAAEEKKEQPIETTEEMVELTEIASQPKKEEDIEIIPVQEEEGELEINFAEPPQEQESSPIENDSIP

[31] = biological target: T1, CD20 on dog lymphoma cells (dog); assay: flow cytometry on dog lymphoma aspirate, murine MAbs (none 3.85)
CD20 (human) = biological target: T2, CD20 (human) (UniProt P11836); assay: indirect flow cytometry on Namalwa cells, FITC-GAM 2nd Ab (none 2.91)
T2 sequence (looked up): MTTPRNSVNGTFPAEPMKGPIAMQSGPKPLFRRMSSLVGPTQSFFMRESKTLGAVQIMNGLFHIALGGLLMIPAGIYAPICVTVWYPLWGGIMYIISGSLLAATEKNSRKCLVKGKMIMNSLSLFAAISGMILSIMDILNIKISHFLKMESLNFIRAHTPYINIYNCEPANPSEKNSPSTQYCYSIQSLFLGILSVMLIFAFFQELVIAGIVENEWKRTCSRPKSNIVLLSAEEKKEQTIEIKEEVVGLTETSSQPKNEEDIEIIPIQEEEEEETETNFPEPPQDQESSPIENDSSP

Sequence of CD74 (human) (P04233 whole entry): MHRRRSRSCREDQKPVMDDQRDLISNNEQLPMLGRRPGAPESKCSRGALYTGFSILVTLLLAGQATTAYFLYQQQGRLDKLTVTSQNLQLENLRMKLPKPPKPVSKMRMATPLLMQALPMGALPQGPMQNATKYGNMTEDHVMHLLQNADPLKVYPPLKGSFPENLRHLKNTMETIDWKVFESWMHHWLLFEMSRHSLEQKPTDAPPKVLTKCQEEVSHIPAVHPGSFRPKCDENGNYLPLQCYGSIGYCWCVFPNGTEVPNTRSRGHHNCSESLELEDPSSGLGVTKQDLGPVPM

Substance: hRS7 (antibody)
GEO MEAN Fluorescence (HLA-DR (human) [1]): 2.47

Substance: hLL1 (antibody)
Geometric Mean Fluorescence (CD74 (human) [2]): 7.9 | Geometric Mean Fluorescence (CD74 (human) [3]): 95.1 | Mean FL [4]: 3.33 | % [5]: 4.71% | Geometric Mean Fluorescence (CD74 (human) [6]): 48.8 | Geometric Mean Fluorescence (CD74 (human) [7]): 23.3 | GEO MEAN Fluorescence (CD74 (human) [8]): 10.1 | Geometric Mean Fluorescence (CD74 (human) [9]): 7.8 | Geometric Mean Fluorescence (CD74 (human) [10]): 17.3 | Geometric Mean Fluorescence (CD74 (human) [11]): 8.7 | Geometric Mean Fluorescence (CD74 (human) [12]): 95.1 | Geometric Mean Fluorescence (CD74 (human) [13]): 48.8 | Geometric Mean Fluorescence (CD74 (human) [14]): 23.2 | Geometric Mean Fluorescence (CD74 (human) [15]): 7.81 | Geometric Mean Fluorescence (CD74 (human) [16]): 17.3 | Geometric Mean Fluorescence (CD74 (human) [17]): 8.66

Substance: hL243γ4P (antibody)
ADCC on Daudi cells, specific lysis corrected for the effect on effector cells (5 µg/ml, effector:target 50:1, 4 h) [23]: 12%

Substance: RS7 (murine) (antibody)
GEO MEAN Fluorescence (HLA-DR (human) [26]): 3.39

Substance: m2B8 (antibody)
Mean FL [30]: 3.11 | % [31]: 2.61% | GEO MEAN Fluorescence (CD20 (human)): 6.16

Substance: hL243γ1 (antibody)
ADCC on Daudi cells, specific lysis corrected for the effect on effector cells (5 µg/ml, effector:target 50:1, 4 h) [23]: 48%

Next, values leading:

Mean FL [18]: 3.73 | % [19]: 5.05% | GEO MEAN Fluorescence (CD22 (human)): 10.5
Substance: LL2 (murine) (antibody)

Mean FL [20]: 3.04 | % [21]: 2.81% | GEO MEAN Fluorescence (HLA-DR (human) [22]): 3.64
Substance: Ag8 (antibody)

Mean FL [24]: 3.37 | % [25]: 4.85%
Substance: hLL2 (antibody)

Mean FL [27]: 4.01 | % [28]: 6.69% | GEO MEAN Fluorescence (CD74 (human) [29]): 17.3
Substance: LL1 (murine) (antibody)
